A word on the Kd: it is a measure of binding affinity in units of concentration. Low readings indicate tighter binding, high ones weaker binding.

Our source for the specific binding response and Kd values is paper PMC11756389.

The target in experiment [1] is T1, paired immunoglobulin-like receptor B (PIR-B), C-terminal biotinylated (mouse), P97484.
T1 chain: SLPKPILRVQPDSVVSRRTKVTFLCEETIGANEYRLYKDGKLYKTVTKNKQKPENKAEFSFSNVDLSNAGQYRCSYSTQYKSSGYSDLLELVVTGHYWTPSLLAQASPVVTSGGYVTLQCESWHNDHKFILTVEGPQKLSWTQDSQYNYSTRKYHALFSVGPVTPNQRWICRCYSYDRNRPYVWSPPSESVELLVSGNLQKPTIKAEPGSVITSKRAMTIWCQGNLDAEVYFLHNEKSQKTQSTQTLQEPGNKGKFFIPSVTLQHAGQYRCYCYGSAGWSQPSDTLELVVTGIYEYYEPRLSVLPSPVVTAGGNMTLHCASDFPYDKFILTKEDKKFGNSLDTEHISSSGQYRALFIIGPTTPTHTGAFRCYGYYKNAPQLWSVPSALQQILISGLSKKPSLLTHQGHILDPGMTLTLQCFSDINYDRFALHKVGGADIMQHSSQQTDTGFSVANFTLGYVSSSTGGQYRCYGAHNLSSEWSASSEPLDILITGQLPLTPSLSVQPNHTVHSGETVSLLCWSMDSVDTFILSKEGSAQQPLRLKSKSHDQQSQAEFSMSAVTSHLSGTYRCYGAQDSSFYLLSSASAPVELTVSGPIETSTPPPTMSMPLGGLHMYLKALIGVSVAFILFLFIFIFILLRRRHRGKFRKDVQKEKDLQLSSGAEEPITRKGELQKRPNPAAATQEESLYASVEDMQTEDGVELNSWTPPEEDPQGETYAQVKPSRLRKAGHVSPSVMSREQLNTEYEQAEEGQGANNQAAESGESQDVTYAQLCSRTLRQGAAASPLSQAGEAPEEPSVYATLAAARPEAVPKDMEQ
The experiment can be described thus: SPR. (In SPR one partner is held on a chip, and binding of the other changes the refractive index at the surface.)

The target in experiment [2] is two N-terminal domains (D1D2) of LILRB2 with a C-terminal biotinylation tag, biotinylated (human). The experiment can be described thus: SPR.

B1: soluble HLA-G2 homodimer (non-PEGylated) (domain or fragment)
chain: GSHSMRYFSAAVSRPGRGEPRFIAMGYVDDTQFVRFDSDSACPRMEPRAPWVEQEGPEYWEEETRNTKAHAQTDRMNLQTLRGYYNQSEANPPKTHVTHHPVFDYEATLRCWALGFYPAEIILTWQRDGEDQTQDVELVETRPAGDGTFQKWAAVVVPSGEEQRYTCHVQHEGLPEPLMLRW
modifications: not checked
In experiment [1], B1 had a specific binding response at 6.2 μM of 100 RU. The molecule also displayed a Kd in experiment [2] of 0.041 to 0.064 pM.
